# Experimental data taken from US20080274110A1 (published 2008).
# B1: 2D7 antibody (antibody, mouse IgG2b, V domains shown)
# VH: QVQLQQSGPELVKPGASVKMSCKASGYTFTDYFIHWVKQRPGQGLEWIGWIFPGDDTTDYNEKFRGKTTLTADKSSSTAYILLSSLTSEDSAMYFCVRSDDFDYWGQGTTLTVSS
# VL: QIVLTQSPAIMSASPGEKVTITCSASSSVSYMHWFQQKPGTFPKLWIYSTSNLASGVPTRFSGSGSGTSYSLTISRMEAEDAATYYCQQRTSYPPTFGSGTKLEIK
# notes: Whole mouse monoclonal antibody purified on Protein A from ascites of the 2D7 hybridoma (University of Tokushima); Primers for mouse IgG2b constant regions were used to clone its variable regions
# Target: T1, β2 microglobulin (human, UniProt P61769 21-119)
# T1 construct: The 12 kD band on its own, as probed by Western blotting; also called molecule of approximately 12 KD
# Assay: Western blotting with the 2D7 antibody
# Description: As a result, a molecule (approximately 12 kD) that precipitates specifically in RPMI8226 and U266 cells was observed (FIG. 3). This molecule was not detected by Western blotting using the 2D7 antibody, but since it is at least reproducibly precipitated by the 2D7 antibody, it was strongly predicted to be the 2D7 antigen itself, or a molecule that co-precipitates with the 2D7 antigen.
# T1 sequence (P61769 21-119 limits assumed): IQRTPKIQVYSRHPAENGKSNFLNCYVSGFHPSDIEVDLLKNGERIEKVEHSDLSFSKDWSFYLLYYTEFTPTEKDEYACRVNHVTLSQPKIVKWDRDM
binder,measurement,value
B1,binding result,no binding
